Experiment in all cases: cell-based or functional assay
Test [1] concerns the target T1, CD40 receptor on cells (HEK293 reporter cells expressing CD40; primary human B cells) (human, UniProt P25942 21-277).
The target in test [2] is T1, CD40 receptor on cells (HEK293 reporter …). This is another data set of the same source.
Test [3] shares this target. This is another data set of the same source.

T1 sequence (P25942 21-277): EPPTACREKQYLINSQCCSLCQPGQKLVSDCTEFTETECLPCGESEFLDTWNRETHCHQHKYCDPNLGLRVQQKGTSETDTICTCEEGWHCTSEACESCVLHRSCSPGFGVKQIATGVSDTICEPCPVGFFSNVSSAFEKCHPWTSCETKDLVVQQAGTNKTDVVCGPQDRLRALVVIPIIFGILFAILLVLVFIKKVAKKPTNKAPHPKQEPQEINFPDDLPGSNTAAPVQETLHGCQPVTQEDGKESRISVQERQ

B1: SMA091 (SEQ ID NO: 103) (designed binder)
chain: MRGSHHHHHHGSDLGKKLLEAARAGQDDEVRELLKAGADVNAKDYFSHTPLHLAARNGHLKIVEVLLKAGADVNAKDFAGKTPLHLAAADGHLEIVEVLLKAGADVNAQDIFGKTPADIAADAGHEDIAEVLQKAAGSPTPTPTTPTPTPTTPTPTPTGSDLGEKLLVAALYGQDDEVRELLKAGADVNAKDQWGLTPLHKAALQGHLEIVEVLLKAGADVNAKDERGHTPLHWAARFGHLEIVEVLLKAGADVNAQDQKGYTPADLAALWGHEDIAEVLQKAAGSPTPTPTTPTPTPTTPTPTPTGSDLGKKLLQAARAGQLDEVRELLKAGADVNAKDTWGFTPLHIAAESGHLEIVEVLLKAGADVNAKDVQGRTPLHIAAHSGHLEIVEVLLKAGADVNAKDFRGWTPLHLAAWSGHLEIVEILLKAGADVNAQDKSGKTPADLAARAGHQDIAEVLQKAAGSPTPTPTTPTPTPTTPTPTPTGSDLGKKLLQAARAGQLDEVRELLKAGADVNAKDTWGFTPLHIAAESGHLEIVEVLLKAGADVNAKDVQGRTPLHIAAHSGHLEIVEVLLKAGADVNAKDFRGWTPLHLAAWSGHLEIVEILLKAGADVNAQDKSGKTPADLAARAGHQDIAEVLQKAA
Take B1: in test [1], the “EC50 [nM], % CD86, human B cells with FAP-CHO, w HSA” value was determined as 2.98 nM; the “EC50 [nM], % CD86, human B cells with FAP-CHO, w/o HSA” value (shortened to “EC50 [nM], % CD86 … w/o HSA”) is 0.76 nM; the “EC50 [nM], MFI CD86, human B cells with FAP-CHO, w HSA” value was 8.05 nM; the “EC50 [nM], MFI CD86, human B cells with FAP-CHO, w/o HSA” value (shortened to “EC50 [nM], MFI CD86 … w/o HSA”) was found to be 3.93 nM. Also, in test [2], the “Efficacy [MFI at highest dose], MFI CD86, human B cells with FAP-CHO, w HSA” value was determined as 2980 MFI; the “Efficacy [MFI at highest dose], MFI CD86, human B cells with FAP-CHO, w/o HSA” value was 6230 MFI; the “Efficacy at highest dose, % CD86, human B cells with FAP-CHO, w HSA” value amounted to 75.6%; the “Efficacy at highest dose, % CD86, human B cells with FAP-CHO, w/o HSA” value came out at 78.2%. Further, in test [3], the “Efficacy [MFI at highest dose], MFI CD86, human B cells with WT-CHO (no FAP), w HSA” value (“Efficacy [MFI at highest dose] … (no FAP), w HSA” for short) was 296 MFI; the “Efficacy [MFI at highest dose], MFI CD86, human B cells with WT-CHO (no FAP), w/o HSA” value came out at 290 MFI; the “Efficacy at highest dose, % CD86, human B cells with WT-CHO (no FAP), w HSA” value stood at 43.1%; the “Efficacy at highest dose, % CD86, human B cells with WT-CHO (no FAP), w/o HSA” value stood at 47.8%.

B2: SMA099 (SEQ ID NO: 104) (designed binder)
chain: MRGSHHHHHHGSDLGKKLLEAARAGQDDEVRELLKAGADVNAKDYFSHTPLHLAARNGHLKIVEVLLKAGADVNAKDFAGKTPLHLAAADGHLEIVEVLLKAGADVNAQDIFGKTPADIAADAGHEDIAEVLQKAAGSPTPTPTTPTPTPTTPTPTPTGSDLGEKLLVAALYGQDDEVRELLKAGADVNAKDQWGLTPLHKAALQGHLEIVEVLLKAGADVNAKDERGHTPLHWAARFGHLEIVEVLLKAGADVNAQDQKGYTPADLAALWGHEDIAEVLQKAAGSPTPTPTTPTPTPTTPTPTPTGSDLGKKLLQAARAGQLDEVRELLKAGADVNAKDTWGFTPLHIAAESGHLEIVEVLLKAGADVNAKDVQGRTPLHIAAHSGHLEIVEVLLKAGADVNAKDFRGWTPLHLAAWSGHLEIVEILLKAGADVNAQDKSGKTPADLAARAGHQDIAEVLQKAAGSPTPTPTTPTPTPTTPTPTPTGSDLGKKLLQAARAGQLDEVRELLKAGADVNAKDTWGFTPLHIAAESGHLEIVEVLLKAGADVNAKDVQGRTPLHIAAHSGHLEIVEVLLKAGADVNAKDFRGWTPLHLAAWSGHLEIVEILLKAGADVNAQDKSGKTPADLAARAGHQDIAEVLQKAAGSPTPTPTTPTPTPTTPTPTPTGSDLGKKLLEAARAGQDDEVRELLKAGADVNAKDYFSHTPLHLAARNGHLKIVEVLLKAGADVNAKDFAGKTPLHLAAADGHLEIVEVLLKAGADVNAQDIFGKTPADIAADAGHEDIAEVLQKAA
As for B2, in test [1], the “EC50 [nM], % CD86, human B cells with FAP-CHO, w HSA” value is 7.5 nM; the “EC50 [nM], % CD86 … w/o HSA” value was determined as 4.68 nM; the “EC50 [nM], MFI CD86, human B cells with FAP-CHO, w HSA” value turned out to be 19.4 nM; the “EC50 [nM], MFI CD86 … w/o HSA” value worked out at 18.2 nM. Further, in test [2], the “Efficacy [MFI at highest dose], MFI CD86, human B cells with FAP-CHO, w HSA” value was 1720 MFI; the “Efficacy [MFI at highest dose], MFI CD86, human B cells with FAP-CHO, w/o HSA” value amounted to 4950 MFI; the “Efficacy at highest dose, % CD86, human B cells with FAP-CHO, w HSA” value stood at 71.7%; the “Efficacy at highest dose, % CD86, human B cells with FAP-CHO, w/o HSA” value came out at 84.4%. In addition, in test [3], the “Efficacy [MFI at highest dose] … (no FAP), w HSA” value worked out at 274 MFI; the “Efficacy [MFI at highest dose], MFI CD86, human B cells with WT-CHO (no FAP), w/o HSA” value was found to be 289 MFI; the “Efficacy at highest dose, % CD86, human B cells with WT-CHO (no FAP), w HSA” value amounted to 42.5%; the “Efficacy at highest dose, % CD86, human B cells with WT-CHO (no FAP), w/o HSA” value was 47.4%.

B3: SMA105 (SEQ ID NO: 106) (designed binder)
chain: MRGSHHHHHHGSDLGEKLLVAALYGQDDEVRELLKAGADVNAKDQWGLTPLHKAALQGHLEIVEVLLKAGADVNAKDERGHTPLHWAARFGHLEIVEVLLKAGADVNAQDQKGYTPADLAALWGHEDIAEVLQKAAGSPTPTPTTPTPTPTTPTPTPTGSDLGKKLLQAARAGQLDEVRELLKAGADVNAKDTWGFTPLHIAAESGHLEIVEVLLKAGADVNAKDVQGRTPLHIAAHSGHLEIVEVLLKAGADVNAKDFRGWTPLHLAAWSGHLEIVEILLKAGADVNAQDKSGKTPADLAARAGHQDIAEVLQKAAGSPTPTPTTPTPTPTTPTPTPTGSDLGKKLLQAARAGQLDEVRELLKAGADVNAKDTWGFTPLHIAAESGHLEIVEVLLKAGADVNAKDVQGRTPLHIAAHSGHLEIVEVLLKAGADVNAKDFRGWTPLHLAAWSGHLEIVEILLKAGADVNAQDKSGKTPADLAARAGHQDIAEVLQKAAGSPTPTPTTPTPTPTTPTPTPTGSDLGKKLLQAARAGQLDEVRELLKAGADVNAKDTWGFTPLHIAAESGHLEIVEVLLKAGADVNAKDVQGRTPLHIAAHSGHLEIVEVLLKAGADVNAKDFRGWTPLHLAAWSGHLEIVEILLKAGADVNAQDKSGKTPADLAARAGHQDIAEVLQKAA
Regarding B3, in test [1], the “EC50 [nM], % CD86 … w/o HSA” value came to 0.11 nM and the “EC50 [nM], MFI CD86 … w/o HSA” value was determined as 0.33 nM. In test [2], the “Efficacy [MFI at highest dose], MFI CD86, human B cells with FAP-CHO, w/o HSA” value was found to be 5560 MFI and the “Efficacy at highest dose, % CD86, human B cells with FAP-CHO, w/o HSA” value amounted to 87.2%. Further, in test [3], the “Efficacy [MFI at highest dose], MFI CD86, human B cells with WT-CHO (no FAP), w/o HSA” value amounted to 672 MFI and the “Efficacy at highest dose, % CD86, human B cells with WT-CHO (no FAP), w/o HSA” value amounted to 69.2%.

B4: SMA095 (SEQ ID NO: 101) (designed binder)
chain: MRGSHHHHHHGSDLGKKLLEAARAGQDDEVRELLKAGADVNAKDYFSHTPLHLAARNGHLKIVEVLLKAGADVNAKDFAGKTPLHLAAADGHLEIVEVLLKAGADVNAQDIFGKTPADIAADAGHEDIAEVLQKAAGSPTPTPTTPTPTPTTPTPTPTGSDLGEKLLVAALYGQDDEVRELLKAGADVNAKDQWGLTPLHKAALQGHLEIVEVLLKAGADVNAKDERGHTPLHWAARFGHLEIVEVLLKAGADVNAQDQKGYTPADLAALWGHEDIAEVLQKAAGSPTPTPTTPTPTPTTPTPTPTGSDLGKKLLQAARAGQLDEVRELLKAGADVNAKDTWGFTPLHIAAESGHLEIVEVLLKAGADVNAKDVQGRTPLHIAAHSGHLEIVEVLLKAGADVNAKDFRGWTPLHLAAWSGHLEIVEILLKAGADVNAQDKSGKTPADLAARAGHQDIAEVLQKAAGSPTPTPTTPTPTPTTPTPTPTGSDLGKKLLEAARAGQDDEVRELLKAGADVNAKDYFSHTPLHLAARNGHLKIVEVLLKAGADVNAKDFAGKTPLHLAAADGHLEIVEVLLKAGADVNAQDIFGKTPADIAADAGHEDIAEVLQKAA
As to B4, in test [1], the “EC50 [nM], % CD86 … w/o HSA” value was found to be 89.8 nM and the “EC50 [nM], MFI CD86 … w/o HSA” value amounted to 288 nM. Moreover, in test [2], the “Efficacy [MFI at highest dose], MFI CD86, human B cells with FAP-CHO, w HSA” value worked out at 232 MFI; the “Efficacy [MFI at highest dose], MFI CD86, human B cells with FAP-CHO, w/o HSA” value is 773 MFI; the “Efficacy at highest dose, % CD86, human B cells with FAP-CHO, w/o HSA” value came out at 28.7%. Also, in test [3], the “Efficacy [MFI at highest dose] … (no FAP), w HSA” value stood at 306 MFI; the “Efficacy [MFI at highest dose], MFI CD86, human B cells with WT-CHO (no FAP), w/o HSA” value amounted to 299 MFI; the “Efficacy at highest dose, % CD86, human B cells with WT-CHO (no FAP), w HSA” value was 13.7%; the “Efficacy at highest dose, % CD86, human B cells with WT-CHO (no FAP), w/o HSA” value was 12.5%.

These data come from US20240279309A1 (Molecular Partners, published 2024).
